Reference: publication PMC2646909

Target: SOD1 G93A (untagged) (human, UniProt P00441 2-154, G94A)
Assay: competition

Chain of SOD1 G93A (untagged) (P00441 2-154 G94A): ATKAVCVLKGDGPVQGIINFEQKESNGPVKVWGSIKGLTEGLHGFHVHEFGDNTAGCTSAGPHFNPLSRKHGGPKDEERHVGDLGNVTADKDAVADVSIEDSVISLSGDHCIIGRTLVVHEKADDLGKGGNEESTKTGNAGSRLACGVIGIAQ

CGGAGCCCAGCCCUCCCCAUGGAGCCAGCUCCCUCU (ssRNA) [control RNA (no AU-rich sequence)]
binding result: no binding
